From the nanobody polyreactivity screen of Harvey et al. (2022)

Experiment: yeast display, Sf9 membrane polyspecificity reagent, FACS + sequencing; frameworks hold sequencing errors
Procedure, shortened: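 A synthetic nanobody library was expressed on Saccharomyces cerevisiae BJ5465 by galactose induction for 36–48 hours. The library was stained for 1 hour at 4 °C with 10% biotinylated, detergent-solubilized Sf9 membrane reagent and enriched with streptavidin microbeads before FACS. Low and high (top ~1%) gates were set on anti-HA fluorescence for expression and streptavidin fluorescence for reagent binding, and each polyreactivity label reflects the gate of origin.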

Row | Sequence | polyreactivity (PSR sort gate)
1 | QVQLVESGGGLVQAGGSLRLSCAASGRTFRTYAMGWYRQAPGKERELVAAITSRAGSTYYADSVKGRFTISRDNAKNSVYLQMNSLKPEDTAVYYCAKQYYYGWYWGEDYWGQGTQVTVSS | low polyreactivity
2 | QVQLVESGGGLVQAGGSLRLSCAASGFIFRYYAMGWYRQAPGKERELVAAISRGGSTNYADSVKGRFTISRDNAKNTVYLQMNSLKPEDTAVYYCAARTVRARSKFEYWGQGTQVTVSS | high polyreactivity
3 | QVQLVESGGGLVQAGGSLRLSCAASGITFDYYAMGWYRQAPGKERELVAAITSVGNTYYADSVKGRFTISRDNAKNTVYLQMNSLKPEDTAVYYCNALSFYSLVSFDYWGQGTQVTVSS | low polyreactivity
4 | QVPLVESGGGLVQAGGSLRLSCAASGFTFTPYGMGWYRPAPGKERELVAAITWNGGRTYYADSVKGRFTISRDNAKNTVYLQMNSLKPEDTAVYYCAAVAWSWQKRGYWGQGTQVTVSS | high polyreactivity
5 | QVQLVESGGGLVQAGGSLRLSCAASGSTFYFNAMGWYRQAPGKEREFVAGIRYSGSSTYYADSVKGRFTISRDNAKNTVYLQMNSLKPEDTAVYYCAAERWCYTVRGYGYWGHGTQVTVSS | high polyreactivity
6 | QVQLVESGGGLVQARGRLRLSCSASGRTFYGYAMGWYRQATGKERELVASISWSTGSTHYADSVKGRFTISRDNAKNTVYLQMNSLKPEDTAVYYCAAPFWRDSYVQIDYDFWGQGTQVTVSS | low polyreactivity
7 | QVQLVETGGGLVQAGGSLRLRGAASGSTNYNYAMGWYRQAPGKERELVAAISISGGSPYYADSVKGRFTISRDNANNTVYLQMYSLKAEDTAVYYCAAVRLGSRGGYCGQGTQVTVSS | high polyreactivity
8 | QVQLVESGGGLVQAGGSLRLSCAASGRIFSYAMGWYRQAPGKERELVAAITRRGSTYYADSVKGRFTISRDNAKNTVYLQMKSLKPEDTAVYYCAADIYYSRTFYPMGYWGQGTQVTVSS | high polyreactivity
9 | QVQLVESGGGLVQAGGSLRLSCAASGSIFIYNAMGWYRQAPGKERELVAAISSSGGSTYYADSVKGRFTISRDNAKNTVYLQMNSLKPEDTAVYYCAARTYYVRVLGGRPGMDYWGQGTQVTVSS | low polyreactivity
10 | QVQLVESGGGLVQAGGSLRLTCAASGRIFLINAMGWYRPAPGKERDLVATISRSGASTDYADSVKGRFTISRDNAKYIVYLQMKSMKPEDTAVYYCNAKVYKRRVVPYDYWGQGSQVTVSS | high polyreactivity
11 | QVQLVESGGGLVQAGGSLRLSCAASGSTFKQYAMGLYRQAPGTERELVAVITWRGGRTYYADSVKGRFTISRDYAKNTVYLQMNSLKPEDTAVYYCAADYFSFIPGYDYWGQGTQVTVSS | high polyreactivity
12 | QVQLVESGGGLVQAGGSLRLSCAASGRTLFPYAMGWYIQAPGKERELVAAITSRGTSTYYADSVKGRFTISRDIAKNNVYLQMNSLKPEDTAVYYCAKDGWFWGWRFDYCGQGTQVTVSS | low polyreactivity
13 | QVQLVESGRGLVQAGGSLRLSCAASGRTVWVYTMGWYRQAPGKERELVAAITLSGGSTYYADSVKGRFTISRDNAKNTVYLQMNSLKPEDTAVYYSNARPYYYTYRHSQYYYWGQGTQVTVSS | high polyreactivity
14 | QVQLVESGVGLVQAGGILRLSCAASGRIFYKNAMVWYRQAPGKERELVATITYSDGTTYYADSLKGRFTISRDNAKNTVYLQMNSLKPEDTAVYYCAAQTDSVESDYWGQGTQVTVSS | low polyreactivity
15 | QVQLVESGGGLVQAGGSLRLSCAASGRSFRPYARGWYRQAPGKERELVAAISSSGGSTYYADSVKGRFTISRDNAKNTVYLQMNSLKPEDTAVYYCATYFARGYNSWGQGTQVTVSS | high polyreactivity
16 | QVQLVESGGGLVQAGGSLRLSCAASGRTFVYYAMGWYRQAPGKERELVAAISSRGGSTYYADTVKGRFTISRDYAKNSVYLQMYSLKPEDTAVYYCAAVIGPERPTSPFDFWGQGTQVTVSS | high polyreactivity
17 | QVQLVESGGGLVQAGGSLRLSCAASGFTLSAYAMGLYRQAPGKERELVAGNSYTGGRTYYADSVKGRFTISRDNAKNTFYLQLISLKPEDTAVDYCAAALYSDVDAVATYGYYWGEGTQVTVSS | low polyreactivity
18 | QVQLVESRGGLVQAGGSLRLSCAASGRIILIYAMGWYRQAPGKERELVGDISKGGSSTYYADSVKGRVTISRDNAQNTVYLQMNSLKPEDTAVYYCAASGRWTGRQAAYDYWGQGTQVTVSS | high polyreactivity
19 | QVQLVESGGGLVQAGGSLRLSCAASGRISRLNAMGWYRQAPGKERELVATISGRGGGTYYADSVKGRFTISRDNAKNTVYLQMNSLKPEDTAVYYCNRRWFTRYDYWGQGTQVTVSS | high polyreactivity
20 | QVQLVESGGGLVQAGGSLRISCAASGITFYANVMGWYRQAPGKARELVAAISARRGSTYYADSVKGRFTISRDNAKNTVYLQMNSLKPEDTAVYYCATREAYRQQGGYGYWGQGTQVTVSS | high polyreactivity
21 | QVQLVESGGGLVQAGGILRLSCAASGSIFRPYAMGWYRQAPGKERELVAAIRWSTRNTYYADSVKGRFTISRDNAKNTVYLQMNSLKPEDTAVYYCAAAYWPVVWFYYWGQGTQVTVSS | low polyreactivity
22 | QVQLVESGGGSVQAGGSLRLSCAASGSIFYPYTMGWSRQAPGKERELVAVITGSGGRTYYADSVKGRFTISRDNAKNTVYLQMNSLKPEDTAVYYCNASPFTVRYYKYEYWGQGTQVTVSS | low polyreactivity

Row | Sequence | polyreactivity (PSR sort gate)
23 | QVQLVESGGGLDQAGGSLRLSCAASGFTLYRNAMGWYRQAPGKERELVAAITSSGGRTYYADSVKGRFTISRDNAKYTVYLQMNSLKPEDTAVYYCAAEFGLGYYYWGQGTQVNVSS | high polyreactivity
24 | QVQHVESGGGLVQARGSLRLSCAASGSIFFNTMGWYSQAPGKERELVAAITWSGGRTYYADSVKGRFTISRDNAKNTVYLQMNSLKPEDTAVYYCAKDQGSWRYDYWGLGTQVTVSS | low polyreactivity
25 | QVQLVESGGGLVQAGGSLRLSCAASGFTLYGYAMGWYRQAPGKERELVAGIRYSGGRTYYADSVKGRFTISRDNAKNTVYLEMNSLKPEDTAVYYCAAVFKLSSSFYYWGQGTQVTVSS | high polyreactivity
26 | QVQLVESGGGLVQAGGSLRLSCAASGNTLYQYAMGWYRQAPGKERELVAAISGIGDSTYYADSVKGRFTISRDNAKNTVYLQMNSLKPEDTAVYYCAADGEYRYDLEYESWGQGTQVTVSS | low polyreactivity
27 | QVQLVESGGGLVQAGGSLRLSCAASGSTFYIYAMGWYRQAPGKERELVAAITSGGNTYYADSVKGRFTISRDNAKNTVYLQMNSLKPEDTAVYYCAAELYDRWSRMDYWGQGTQVTVSS | low polyreactivity
28 | QVQLVESGGGLVQAGGSLRLSCAASGSTKYYVMGWYRQAPGKERELVAAISRGSSTYYADSVKGRFTISRDNAKNTVYLQMNSLKPEDTAVYYCAARGPWQAPYDYWGQGTQVTVSS | high polyreactivity
29 | QVQLVESGGGLVQAGGSLRLSCAASGSILGLYAMGWYRQAPGKERELVAAISSGGSTYYADSVKGRFTISRDNAKNTVYLQMNSLKPEDSAVYYCAADLSWSRVVFGDYDYWGQGTQVTVSS | low polyreactivity
30 | QVQLVESGGGLVQAGGSLRLSCAASGSTFNYNAMGWYRQAPGKERELVAAITGTGGDTYYADSVKGRITISRDNAKNTVYLQMNILKPEDTAVYYCDAEEDYWGQGTQVTLSS | low polyreactivity
31 | QVQLVESGGGLVQAGGSLRLSCAASGSIFVSYAMGWYRQAPGKERELVAAISISDGSTYADSVKGRFTISRDNAKNTVYLQMNSLKPEDTAVYYCATYLVYDYAYVAYDYWGQGTQVTVSS | low polyreactivity
32 | QVQLVESGGGLVQAGGSLRLSCAASGYTMGWYRQAPGKEREYGAAINQTGGSTYADSVKGRFTISRDNAKNTVYLQMNSLKPEDTAVYYCATDPAYWGDQPPEYDYWGQGTQVTVSS | low polyreactivity
33 | QVQLVESGGGLVQAGGSLRLSCAASGRTFAYNAMGWYRQAPGKERELVAAITFGGGSTYYADSVKGRFTISRDNAKNTVYLQMNSLKPEDTAVYYCTAERGYYYHFGYWGQGTQVTVSS | high polyreactivity
34 | QVHLVESGGGLVQAGGSLRLSCAASGSSFRYYAMGWYRQAPGKERELVAAISGSGGRTYYADSVKGRFTISRDNEKNNVYLQMNSLKPEDTAVYYCAAQSGYYDSAYGYWGQGTKVTVSS | high polyreactivity
35 | QVQLVESGGGLVQAGGSLRLSCAASGLILQYYVMGWYIQAPGKERELVAAITRSGGGTYYADSVKGRFTISRDNAKNTVYLQMNSLKPEDSAVYYCAAQRQYGKFDYWGQGTQVTVSS | high polyreactivity
36 | QVQLVESGGGLVQAGGSLRLSCAASGRIFVKYAMGWYRQAPGKEREMVAAISASGGGTYYADSVKGRFTISRDNAKNTVYLQMNSLNPVDTAVYYFNADFRYPGQVPSYVTYDYWGQGTQVNVSS | low polyreactivity
37 | QVQLVESGGGLVQAGGSLRLSCAASGSTFTRYAMGWYRQAPGKERELVAAITRSGGGTYYADSVKGRFTISRDNAKNTVYLQMNSLKPEDTAVYYCAKDIVFYGAPGYGYWGQGTQVTVSS | high polyreactivity
38 | QVQLVESGGGLVQAGGSLRLSSAASGRIFPHNAMGWYRQAPGKERELVAAISSNGGSTYYADSVKGRFTISRDNAKNTVYLQMNSLKPEDTAVYYCAKYRYFAGDGDYWGQGTQVTVSS | low polyreactivity
39 | QVQLVESGGGLVQAGGSLRLSCAASGSILYVYAMGRYRQAPGKERELVAAISGSGGSTYYADSVKGRFTISRDNAKNTVYLQMNSLKPEDTAVYYCAADYATVTWRGIAYDYWGLGTQVTVSS | low polyreactivity
40 | QDQLVESGGRLVQAVGSLRLTCAASGRIFRGNGLGWYRQAPGKARELVASISSGGRTNYADSVKGRFTISRDNAKNTVYLQMNSLKPEDTAVYYCSATKSPSLYRWLYDYWGQGTQVTVSS | high polyreactivity
41 | QLQLVESVRGLVQAGGSLRLSCAASGGIFDTYAKGWYRQAPCKERELVASISRSGSTNYADSVKGRFTISRDNAKNTVYLQMNSLKPEDSAVYYCAADVFYSIYDYWGQGTQVTVSS | low polyreactivity
42 | QVQLVESVGGLVKAGGSLRLSCAASGSTFRYYSMGWYRPAPGKERELVAGITTGGGRTYYADSVKGRFTISRDNAMNTVYLQMNSLKPEDTAVYSCAADRYSHYWYRNSYDYWGQGTQVTVSS | high polyreactivity
43 | QVQLVESCGGLFQAGGSLRLSCAPSGRTSWVYAMGWYRQAPAKERELVASIRKRTVVYADSVKGRFTISRENAKNTVYLQMNSLKPEETAVYYCNTDYSSTSQWRAANYWGQGTQVTVSS | high polyreactivity
